What was measured:
[1] = molecular target: T1, MTDH (364-582) (Homo sapiens, UniProt Q86UE4); test: GST-mediated pull-down of SND1 constructs and mutants by GST-tagged MTDH (364-582); assay type: binding; conditions: SND1 mutants in SND1 (16-339)
T1 construct: made in house; host or cells: E. coli DH5α
T1 sequence (Q86UE4 364-582): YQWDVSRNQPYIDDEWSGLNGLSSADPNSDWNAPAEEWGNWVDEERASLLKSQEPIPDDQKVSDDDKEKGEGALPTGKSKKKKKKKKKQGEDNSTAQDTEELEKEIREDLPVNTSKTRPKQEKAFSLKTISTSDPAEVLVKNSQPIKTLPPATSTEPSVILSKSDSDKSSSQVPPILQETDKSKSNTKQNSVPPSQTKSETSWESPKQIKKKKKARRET
From the text: (§1) (FIG. 22A) In vitro pull-down of SND1 (16-339) by GST-tagged MTDH (364-582) harboring WT or mutant sequence. The proteins bound to GS4B were examined on SDS-PAGE and visualized by Coomassie blue staining. (FIG. 22B) In vitro pull-down of WT and mutant SND1 (16-339) by GST-tagged MTDH (364-582). The bound proteins were examined as in (FIG. 22A). For both (FIG. 22A) and (FIG. 22B), experiments were repeated three times; representative results are shown. The normalized percentage of binding was averaged from three experiments; mean±SEM was shown below the data. (FIG. 22C) HEK293T cells were transfected with human HA-SND1, WT Myc-MTDH or Myc-MTDH with indicated single point mutation. Lysates were immunoprecipitated with anti-Myc antibody and immunoblotted with the indicated antibodies. (FIG. 22D) HEK293T cells were transfected with human Myc-MTDH, WT HA-SND1 or mutant HA-SND1 with indicated single point mutations or deletions. Lysates were immunoprecipitated with anti-Myc and immunoblotted with the indicated antibodies.
(§2) GST-Mediated Pull-Down Assay: ˜20 μg of GST-MTDH (different truncation forms and site mutants) was bound to 10 μl of glutathione resin via GST tag. The resin was washed with 200 μl assay buffer (25 mM Tris, PH8.0, 150 mM NaCl, 3 mM DTT) three times to remove the excess unbound protein. 15 μg of His-SND1 (16-339) was added to the resin in a 100 μl volume suspended in the assay buffer with 2 mg/ml of BSA. The mixture was washed with 200 μl assay buffer twice before examined by SDS-PAGE, and visualized by Coomassie blue staining. The experiments were repeated 3 times and the ratio of SND1 associated with GST-MTDH was analyzed by ImageJ.

[2] = molecular target: T2, SND1 (Homo sapiens, UniProt Q7KZF4); test: Co-immunoprecipitation of full-length Myc-MTDH (WT or mutant) and HA-SND1 in HEK293T cells; assay type: cell-based; conditions: HEK293T cell lysates, immunoprecipitation and immunoblot
T2 construct: Full-length HA-tagged SND1 was co-expressed with full-length Myc-tagged wild-type (WT) or mutant MTDH in HEK293T cells; expressed in transfected cells; host or cells: HEK293T
T2 sequence (Q7KZF4 1-910): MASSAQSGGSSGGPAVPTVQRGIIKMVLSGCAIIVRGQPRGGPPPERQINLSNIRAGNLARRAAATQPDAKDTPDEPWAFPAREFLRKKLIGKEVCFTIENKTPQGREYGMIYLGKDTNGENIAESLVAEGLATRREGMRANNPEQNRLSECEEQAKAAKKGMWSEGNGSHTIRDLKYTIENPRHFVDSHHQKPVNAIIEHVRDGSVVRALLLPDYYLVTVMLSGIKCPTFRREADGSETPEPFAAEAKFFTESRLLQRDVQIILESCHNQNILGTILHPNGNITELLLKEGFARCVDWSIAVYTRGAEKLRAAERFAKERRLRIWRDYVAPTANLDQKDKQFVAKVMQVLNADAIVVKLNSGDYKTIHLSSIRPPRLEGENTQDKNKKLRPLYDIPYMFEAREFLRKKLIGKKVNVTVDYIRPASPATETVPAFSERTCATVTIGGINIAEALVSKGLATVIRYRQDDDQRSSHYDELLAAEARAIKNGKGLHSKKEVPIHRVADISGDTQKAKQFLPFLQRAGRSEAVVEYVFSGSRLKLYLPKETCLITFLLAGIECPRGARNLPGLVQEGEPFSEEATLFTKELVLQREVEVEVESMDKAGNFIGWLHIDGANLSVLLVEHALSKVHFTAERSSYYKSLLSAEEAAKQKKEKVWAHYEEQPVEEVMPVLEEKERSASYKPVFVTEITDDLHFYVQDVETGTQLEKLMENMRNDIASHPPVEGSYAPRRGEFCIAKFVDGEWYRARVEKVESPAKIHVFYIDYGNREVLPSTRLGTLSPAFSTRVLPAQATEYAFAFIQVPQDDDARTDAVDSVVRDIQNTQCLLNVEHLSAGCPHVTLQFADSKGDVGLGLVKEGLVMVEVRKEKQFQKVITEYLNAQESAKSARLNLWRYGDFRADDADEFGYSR
From the text: (§3) FIGS. 7A-E represents determination of key regions and residues mediating the MTDH-SND1 interaction. (FIG. 7A) Schematics of MTDH fragments and mutants with indicated SND1-binding capability. + indicates binding and − indicates no binding based on results shown below. Two putative nuclear localization signals are residues 432-451 for NLS2 and residues 561-580 for NLS3. In the enlarged view of the minimal binding region 386-407, 9 residues were targeted for mutagenesis in the current study. […] (FIG. 7B) Pulldown of His6-SND1AC by GST-tagged MTDH fragments with indicated boundaries. The bound proteins were examined by SDS-PAGE and visualized by Coomassie blue staining. (FIG. 7C) Pulldown of His6-SND1ΔC by GST-tagged WT or triple mutant MTDH fragments (364-582). For (FIG. 7B) and (FIG. 7C), 1/10 of the His6-SND1ΔC input was shown, and GST alone was used as a negative control. Representative results of 3 independent experiments are shown. (FIG. 7D, FIG. 7E) Lysates from HEK293T cells expressing the indicated ectopic human SND1, AGO2 or MTDH were immunoprecipitated with anti-Myc and immunoblotted with the indicated antibodies.
as §1
Immunoprecipitation and western blot For immunoprecipitation (IP) experiments, cultured cells were washed in cold PBS and lysed in lysis buffer (20 mM Tris pH 7.4, 0.15 M NaCl, 1 mM EDTA, 1 mM EGTA, 1% Tx-100, 0.0025 M Na2P2O7, 1 mM α-glycerolphosphate, 1 mM Na3VO4, and 1 mM NaF) with an EDTA-free protease inhibitor mixture (Roche Applied Science) and PMSF. Cell lysates were then incubated on ice for 10 min, centrifuged, and precleared by incubating with protein A/G beads (Santa Cruz Biotechnology) for 1 h at 4° C. For IP bead preparation, 30 μl of protein A/G beads were incubated with 5 μg of antibodies for 2 h at 4° C. IPs were carried out for overnight at 4° C., and beads were centrifuged, washed and subsequently boiled for 5 min in SDS protein loading buffer to elute bound protein. IP lysates were subjected to western blotting with indicated antibodies.
Immunoprecipitation and western blot: For in vivo immunoprecipitation (IP) experiments, cultured cells were washed in cold PBS and lysed in lysis buffer (20 mM Tris pH 7.4, 0.15 M NaCl, 1 mM EDTA, 1 mM EGTA, 1% Tx-100, 0.0025 M Na2P2O7, 1 mM β-glycerolphosphate, 1 mM Na3VO4, and 1 mM NaF) with an EDTA-free protease inhibitor mixture (Roche Applied Science) and PMSF. Cell lysates were then incubated on ice for 10 min, centrifuged, and precleared by incubating with protein A/G beads (Santa Cruz Biotechnology) for 1 h at 4° C. For IP bead preparation, 30 μl of protein A/G beads were incubated with 5 μg of antibodies for 2 h at 4° C. IPs were carried out for overnight at 4° C., and beads were centrifuged, washed and subsequently boiled for 5 min in SDS protein loading buffer to elute bound protein. IP lysates were subjected to western blotting with indicated antibodies.

[3] = molecular target: T3, SND1 (Homo sapiens, UniProt Q7KZF4); test: GST-mediated pull-down of SND1 by GST-tagged MTDH fragments and mutants; assay type: binding; conditions: SND1 (16-339); GST-tagged MTDH (364-582)
T3 construct: 15 μg of His-SND1 (16-339) was added to the resin; made in house; host or cells: E. coli DH5α
T3 sequence (Q7KZF4 16-339): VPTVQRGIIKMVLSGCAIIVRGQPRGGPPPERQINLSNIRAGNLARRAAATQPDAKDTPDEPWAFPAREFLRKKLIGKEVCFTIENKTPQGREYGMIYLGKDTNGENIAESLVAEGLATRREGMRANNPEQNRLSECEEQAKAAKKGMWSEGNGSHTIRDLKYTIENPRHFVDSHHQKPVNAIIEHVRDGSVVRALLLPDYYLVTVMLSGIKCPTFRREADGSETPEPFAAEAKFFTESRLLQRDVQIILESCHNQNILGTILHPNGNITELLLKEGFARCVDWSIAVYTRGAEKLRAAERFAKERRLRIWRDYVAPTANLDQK
From the text: as §3, §1, §2

Row | Molecule | MTDH-binding of SND1 domains and mutants, in vitro [1] | interaction of full-length MTDH (WT or mutant) with HA-SND1 [2] | SND1-binding of MTDH (364-582) point mutants, in vitro [3]
1 | SN1/2 domains: SND1 N-terminal SN1/2 domains, amino acids 16-339 of SEQ ID NO: 2 (protein, listed as Homo sapiens) VPTVQRGIIKMVLSGCAIIVRGQPRGGPPPERQINLSNIRAGNLARRAAATQPDAKDTPDEPWAFPAREFLRKKLIGKEVCFTIENKTPQGREYGMIYLGKDTNGENIAESLVAEGLATRREGMRANNPEQNRLSECEEQAKAAKKGMWSEGNGSHTIRDLKYTIENPRHFVDSHHQKPVNAIIEHVRDGSVVRALLLPDYYLVTVMLSGIKCPTFRREADGSETPEPFAAEAKFFTESRLLQRDVQIILESCHNQNILGTILHPNGNITELLLKEGFARCVDWSIAVYTRGAEKLRAAERFAKERRLRIWRDYVAPTANLDQK | bind stoichiometrically with MTDH | – | –
2 | W401A: MTDH mutant W401A (protein, UniProt Q86UE4 1-582, looked up, variant W401A) Protein LYRIC: MAARSWQDELAQQAEEGSARLREMLSVGLGFLRTELGLDLGLEPKRYPGWVILVGTGALGLLLLFLLGYGWAAACAGARKKRRSPPRKREEAAAVPAAAPDDLALLKNLRSEEQKKKNRKKLSEKPKPNGRTVEVAEGEAVRTPQSVTAKQPPEIDKKNEKSKKNKKKSKSDAKAVQNSSRHDGKEVDEGAWETKISHREKRQQRKRDKVLTDSGSLDSTIPGIENTITVTTEQLTTASFPVGSKKNKGDSHLNVQVSNFKSGKGDSTLQVSSGLNENLTVNGGGWNEKSVKLSSQISAGEEKWNSVSPASAGKRKTEPSAWSQDTGDANTNGKDWGRSWSDRSIFSGIGSTAEPVSQSTTSDYQWDVSRNQPYIDDEWSGLNGLSSADPNSDWNAPAEEAGNWVDEERASLLKSQEPIPDDQKVSDDDKEKGEGALPTGKSKKKKKKKKKQGEDNSTAQDTEELEKEIREDLPVNTSKTRPKQEKAFSLKTISTSDPAEVLVKNSQPIKTLPPATSTEPSVILSKSDSDKSSSQVPPILQETDKSKSNTKQNSVPPSQTKSETSWESPKQIKKKKKARRET | – | not | abolished or significantly reduced the interaction
3 | D389R: MTDH single point mutant D389R (protein, listed as Homo sapiens) MAARSWQDELAQQAEEGSARLREMLSVGLGFLRTELGLDLGLEPKRYPGWVILVGTGALGLLLLFLLGYGWAAACAGSRKKRRSPPRKREEAAAVPAAAPDDLALLKNLRSEEQKKKNRKKLSEKPKPNGRTVEVAEGEAVRTPQSVTAKQPPEIDKKNEKSKKNKKKSKSDAKAVQNSSRHDGKEVDEGAWETKISHREKRQQRKRDKVLTDSGSLDSTIPGIENTITVTTEQLTTASFPVGSKKNKGDSHLNVQVSNFKSGKGDSTLQVSSGLNENLTVNGGGWNEKSVKLSSQISAGEEKWNSVSPASAGKRKAEPSAWSQDTGDANTNGKDWGRSWSDRSIFSGIGSTAEPVSQSTTSDYQWDVSRNQPYIDDEWSGLNGLSSARPNSDWNAPAEEWGNWVDEERASLLKSQEPIPDDQKVSDDDKEKGEGALPTGKSKKKKKKKKKQGEDNSTAQDTEELEKEIREDLPVNTSKTRPKQEKAFSLKTISTSDPAEVLVKNSQPIKTLPPATSTEPSVILSKSDSDKSSSQVPPILQETDKSKSNTKQNSVPPSQTKSETSWESPKQIKKKKKARRET | – | did not affect the interaction | barely had any effect
4 | SN3/4-TSN5 domains: SND1 C-terminal SN3/4-TSN5 domains, amino acids 340-885 of SEQ ID NO: 2 (protein, listed as Homo sapiens) DKQFVAKVMQVLNADAIVVKLNSGDYKTIHLSSIRPPRLEGENTQDKNKKLRPLYDIPYMFEAREFLRKKLIGKKVNVTVDYIRPASPATETVPAFSERTCATVTIGGINIAEALVSKGLATVIRYRQDDDQRSSHYDELLAAEARAIKNGKGLHSKKEVPIHRVADISGDTQKAKQFLPFLQRAGRSEAVVEYVFSGSRLKLYLPKETCLITFLLAGIECPRGARNLPGLVQEGEPFSEEATLFTKELVLQREVEVEVESMDKAGNFIGWLHIDGANLSVLLVEHALSKVHFTAERSSYYKSLLSAEEAAKQKKEKVWAHYEEQPVEEVMPVLEEKERSASYKPVFVTEITDDLHFYVQDVETGTQLEKLMENMRNDIASHPPVEGSYAPRRGEFCIAKFVDGEWYRARVEKVESPAKIHVFYIDYGNREVLPSTRLGTLSPAFSTRVLPAQATEYAFAFIQVPQDDDARTDAVDSVVRDIQNTQCLLNVEHLSAGCPHVTLQFADSKGDVGLGLVKEGLVMVEVRKEKQFQKVITEYLNAQESA | barely interact with MTDH | – | –
